The values below come from US20140087995A1 (published 2014).

Numbered stars: 1 amine (or outer) side, 2 acyl side, 3 side chain; on linkers, the order of the positions; unused ones are H or OH. Bridge positions count the residues as written; N and C are the ends. Side chains are listed from the residue outwards. Ends that are not written are not given here. * marks the point of attachment. C20 diacid = O=C(O)CCCCCCCCCCCCCCCCCCC(=O)*; γGlu = O=C(O)[C@H](CCC(=O)[*:2])N[*:1]; AEEA = NCCOCCOCC(=O)O

Assay [1] addresses T1, rat calcitonin receptor (rat, UniProt P32214 25-516).
T1 construct: whole, on cells; Membranes prepared from transiently transfected BHK tk'ts 13 cells (Assay VIII); also called rCTR; rCT
T1 sequence (looked up): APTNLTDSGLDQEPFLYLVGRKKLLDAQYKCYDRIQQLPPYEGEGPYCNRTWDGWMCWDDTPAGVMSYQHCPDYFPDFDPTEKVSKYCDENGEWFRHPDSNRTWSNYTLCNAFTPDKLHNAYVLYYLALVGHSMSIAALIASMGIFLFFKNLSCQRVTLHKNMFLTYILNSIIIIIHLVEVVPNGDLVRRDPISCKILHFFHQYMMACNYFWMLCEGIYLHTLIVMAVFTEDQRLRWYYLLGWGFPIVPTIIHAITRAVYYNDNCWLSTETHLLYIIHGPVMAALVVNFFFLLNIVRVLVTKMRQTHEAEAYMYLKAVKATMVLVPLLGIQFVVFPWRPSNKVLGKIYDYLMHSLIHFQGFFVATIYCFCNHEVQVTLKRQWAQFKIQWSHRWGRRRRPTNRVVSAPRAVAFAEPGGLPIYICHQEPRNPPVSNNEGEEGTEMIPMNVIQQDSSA
Kind of assay: SPA competition vs 125I-calcitonin, membranes of BHK cells with rat calcitonin receptor (Assay VIII).

Assay [2] concerns the target T1, rat calcitonin receptor. Kind of assay: ratio of binding IC50s: rat calcitonin receptor / rat amylin receptor (reference).
The target in assay [3] is T2, rat amylin receptor (rat calcitonin receptor + rat RAMP 3) (rat, UniProt P32214 25-516; Q9JJ73 23-147).
T2 construct: whole, on cells; Membranes prepared from transiently transfected BHK tk'ts 13 cells (Assay VI); also called rAmylin-R; rAmylin
T2 sequence (looked up) 1: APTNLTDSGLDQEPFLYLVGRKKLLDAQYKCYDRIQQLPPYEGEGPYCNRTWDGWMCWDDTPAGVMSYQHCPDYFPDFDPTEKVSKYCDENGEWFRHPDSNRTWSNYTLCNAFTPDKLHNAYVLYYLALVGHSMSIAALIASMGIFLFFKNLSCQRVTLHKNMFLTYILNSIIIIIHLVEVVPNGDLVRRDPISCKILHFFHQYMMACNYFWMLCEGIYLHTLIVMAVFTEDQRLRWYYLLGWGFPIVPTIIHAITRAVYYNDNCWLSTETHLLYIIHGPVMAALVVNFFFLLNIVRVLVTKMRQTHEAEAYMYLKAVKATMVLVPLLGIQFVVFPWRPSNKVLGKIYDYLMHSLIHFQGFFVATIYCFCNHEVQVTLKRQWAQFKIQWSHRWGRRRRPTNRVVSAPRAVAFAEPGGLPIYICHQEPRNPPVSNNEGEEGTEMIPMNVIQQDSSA
T2 sequence (looked up) 2: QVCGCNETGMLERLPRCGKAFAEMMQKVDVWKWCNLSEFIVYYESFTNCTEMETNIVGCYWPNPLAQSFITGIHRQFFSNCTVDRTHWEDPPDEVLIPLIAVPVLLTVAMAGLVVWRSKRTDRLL
Kind of assay: SPA competition vs 125I-rat amylin, membranes of BHK cells with rat calcitonin receptor + rat RAMP3 (Assay VI). The protocol: The binding assay was performed using scintillation proximity assay (SPA) beads (RPNQ0001) from PerkinElmer and cell membranes from the Amylin 3(a)/CRE-luc cells (as described in Assay (II)) were used. Membranes were prepared in the following way; the cells were rinsed with PBS and incubated with Versene for approximately 5 min before harvesting. The cells were flushed with PBS and the cell-suspension was centrifuged for 5 min at 1000 rpm. Cells were homogenized (ultrathurrax) in a buffer containing 20 mM Na-HEPES and 10 mM EDTA (pH 7.4) and centrifuged at 20.000 rpm for 15 min. The resulting pellet was resuspended, homogenized and centrifuged (20.000 rpm, 15 min) in a buffer containing 20 mM Na-HEPES and 0.1 mM EDTA (pH 7.4, buffer 2). The resulting pellet was resuspended in buffer 2 and protein concentration was measured (BCA protein Assay, Pierce). The homogenate was kept cold during the whole procedure. The membranes were kept at −80° C. until use. The assay was performed in a 384 well Optiplate (PerkinElmer) in a total volume of 40 ul. Membranes were mixed with SPA beads. Final concentration of membranes 35 ng/μL final and SPA beads was 0.05 mg/well. Test-compounds were dissolved in DMSO and further diluted in assay buffer (50 mM Hepes, pH 7.4, 1 mM CaCl2, 5 mM MgCl₂, 0.1% OA and 0.02% Tween20). […] The final mixture was incubated with shaking at 400 rpm for 120 min at 25° C. prior to centrifugation (1500 rpm, 10 min). Samples were analyzed on TopCounter™ (Packard). The IC₅₀ was calculated using (one site binding competition analysis) GraphPad Prism5 as a measure of receptor affinity.
Cells were grown in DMEM with 10% FBS and 1% Pen/Strep. Approximately 48 hours after transfection, the cells were harvested and membranes were prepared.

For assay [4], the target named is T3, human calcitonin receptor (human, UniProt P30988 25-474).
T3 construct: whole, on cells; Membranes prepared from a stably transfected BHK cell line (Assay VII); also called hCTR; hCT
T3 sequence (looked up): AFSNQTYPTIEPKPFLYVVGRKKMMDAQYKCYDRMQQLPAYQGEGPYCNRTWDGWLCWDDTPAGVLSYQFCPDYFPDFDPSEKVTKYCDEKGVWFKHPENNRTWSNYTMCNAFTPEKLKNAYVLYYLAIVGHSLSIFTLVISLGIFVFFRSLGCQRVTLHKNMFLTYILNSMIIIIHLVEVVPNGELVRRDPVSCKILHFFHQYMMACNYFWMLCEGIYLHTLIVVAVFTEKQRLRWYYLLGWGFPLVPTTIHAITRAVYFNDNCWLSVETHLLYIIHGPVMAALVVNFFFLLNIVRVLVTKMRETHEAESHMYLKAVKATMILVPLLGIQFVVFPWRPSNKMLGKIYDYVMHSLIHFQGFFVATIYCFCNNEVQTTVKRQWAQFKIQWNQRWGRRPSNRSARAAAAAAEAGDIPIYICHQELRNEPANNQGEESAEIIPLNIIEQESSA
The assay can be described thus: ratio of binding IC50s: human calcitonin receptor / human amylin receptor (reference). The protocol:
The resulting pellet was resuspended, homogenized and centrifuged (20.000 rpm, 15 min) in a buffer containing 20 mM Na-HEPES and 0.1 mM EDTA (pH 7.4, buffer 2). The resulting pellet was resuspended in buffer 2 and protein concentration was measured (BCA protein Assay, Pierce). The homogenate was kept cold during the whole procedure. The membranes were kept at −80° C. until use. The assay was performed in a 384 well Optiplate (PerkinElmer) in a total volume of 40 ul. Membranes were mixed with SPA beads. Final concentration of membranes 35 ng/μL final and SPA beads was 0.05 mg/well. Test-compounds were dissolved in DMSO and further diluted in assay buffer (50 mM Hepes, pH 7.4, 1 mM CaCl2, 5 mM MgCl₂, 0.1% OA and 0.02% Tween20). […] The final mixture was incubated with shaking at 400 rpm for 120 min at 25° C. prior to centrifugation (1500 rpm, 10 min). Samples were analyzed on TopCounter™ (Packard). The IC₅₀ was calculated using (one site binding competition analysis) GraphPad Prism5 as a measure of receptor affinity.
Membranes were prepared in the following way; the cells were rinsed with PBS and incubated with Versene for approximately 5 min before harvesting. The cells were flushed with PBS and the cell-suspension was centrifuged for 5 min at 1000 rpm. Cells were homogenized (Ultrathurrax) in a buffer containing 20 mM Na-HEPES and 10 mM EDTA (pH 7.4) and centrifuged at 20.000 rpm for 15 min. The resulting pellet was resuspended, homogenized and centrifuged (20.000 rpm, 15 min) in a buffer containing 20 mM Na-HEPES and 0.1 mM EDTA (pH 7.4, buffer 2). The resulting pellet was resuspended in buffer 2 and protein concentration was measured (BCA protein Assay, Pierce). The homogenate was kept cold during the whole procedure. The membranes were kept at −80° C. until use. Assay was performed in a 384 well Optiplate (PerkinElmer) in a total volume of 40 ul. Membranes were mixed with SPA beads.

B1: N^ε1-[2-[2-[2-[[(4S)-4-carboxy-4-(19-carboxynonadecanoylamino)butanoyl]amino]ethoxy]ethoxy]acetyl]-[His14,Arg17,Pro21,Pro27]-h-amylin (peptide)
peptide: K([AEEA-γGlu-C20 diacid])CNTATCATQRLAHFLRHSSPNFGAIPSSTNVGSNTY-NH2
modifications: disulfide 2-7; N-terminus assumed
SMILES: CC[C@H](C)[C@H](NC(=O)[C@H](C)NC(=O)CNC(=O)[C@H](Cc1ccccc1)NC(=O)[C@H](CC(N)=O)NC(=O)[C@@H]1CCCN1C(=O)[C@H](CO)NC(=O)[C@H](CO)NC(=O)[C@H](Cc1c[nH]cn1)NC(=O)[C@H](CCCNC(=N)N)NC(=O)[C@H](CC(C)C)NC(=O)[C@H](Cc1ccccc1)NC(=O)[C@H](Cc1c[nH]cn1)NC(=O)[C@H](C)NC(=O)[C@H](CC(C)C)NC(=O)[C@H](CCCNC(=N)N)NC(=O)[C@H](CCC(N)=O)NC(=O)[C@@H](NC(=O)[C@H](C)NC(=O)[C@@H]1CSSC[C@H](NC(=O)[C@@H](N)CCCCNC(=O)COCCOCCNC(=O)CC[C@H](NC(=O)CCCCCCCCCCCCCCCCCCC(=O)O)C(=O)O)C(=O)N[C@@H](CC(N)=O)C(=O)N[C@@H]([C@@H](C)O)C(=O)N[C@@H](C)C(=O)N[C@@H]([C@@H](C)O)C(=O)N1)[C@@H](C)O)C(=O)N1CCC[C@H]1C(=O)N[C@@H](CO)C(=O)N[C@@H](CO)C(=O)N[C@H](C(=O)N[C@@H](CC(N)=O)C(=O)N[C@H](C(=O)NCC(=O)N[C@@H](CO)C(=O)N[C@@H](CC(N)=O)C(=O)N[C@H](C(=O)N[C@@H](Cc1ccc(O)cc1)C(N)=O)[C@@H](C)O)C(C)C)[C@@H](C)O
notes: Analogue of human amylin; also called compound 69
As to B1, the IC50 came out at 46.8 nM with rat calcitonin receptor [1] and 0.45 nM in assay [3]. In the assay with rat calcitonin receptor [2], the “Ratio rCT/rAmylin binding” value was determined as 104. Also, the “Ratio hCT/hAmylin binding” value in assay [4] was 65.3.

B2: N^ε1-[2-[2-[2-[[(4S)-4-carboxy-4-(19-carboxynonadecanoylamino)butanoyl]amino]ethoxy]ethoxy]acetyl]-[Ala14,Arg17,Pro21,Pro27,Pro31]-h-amylin (peptide)
peptide: K([AEEA-γGlu-C20 diacid])CNTATCATQRLAAFLRHSSPNFGAIPSSTPVGSNTY-NH2
modifications: disulfide 2-7; N-terminus assumed
SMILES: CC[C@H](C)[C@H](NC(=O)[C@H](C)NC(=O)CNC(=O)[C@H](Cc1ccccc1)NC(=O)[C@H](CC(N)=O)NC(=O)[C@@H]1CCCN1C(=O)[C@H](CO)NC(=O)[C@H](CO)NC(=O)[C@H](Cc1c[nH]cn1)NC(=O)[C@H](CCCNC(=N)N)NC(=O)[C@H](CC(C)C)NC(=O)[C@H](Cc1ccccc1)NC(=O)[C@H](C)NC(=O)[C@H](C)NC(=O)[C@H](CC(C)C)NC(=O)[C@H](CCCNC(=N)N)NC(=O)[C@H](CCC(N)=O)NC(=O)[C@@H](NC(=O)[C@H](C)NC(=O)[C@@H]1CSSC[C@H](NC(=O)[C@@H](N)CCCCNC(=O)COCCOCCNC(=O)CC[C@H](NC(=O)CCCCCCCCCCCCCCCCCCC(=O)O)C(=O)O)C(=O)N[C@@H](CC(N)=O)C(=O)N[C@@H]([C@@H](C)O)C(=O)N[C@@H](C)C(=O)N[C@@H]([C@@H](C)O)C(=O)N1)[C@@H](C)O)C(=O)N1CCC[C@H]1C(=O)N[C@@H](CO)C(=O)N[C@@H](CO)C(=O)N[C@H](C(=O)N1CCC[C@H]1C(=O)N[C@H](C(=O)NCC(=O)N[C@@H](CO)C(=O)N[C@@H](CC(N)=O)C(=O)N[C@H](C(=O)N[C@@H](Cc1ccc(O)cc1)C(N)=O)[C@@H](C)O)C(C)C)[C@@H](C)O
notes: Analogue of human amylin; also called compound 72
With B2, the IC50 was determined as 221 nM with rat calcitonin receptor [1] and 0.851 nM in assay [3]. The “Ratio rCT/rAmylin binding” value with rat calcitonin receptor [2] came to 259. Also, the “Ratio hCT/hAmylin binding” value in assay [4] was 247.

B3: N^ε1-[2-[2-[2-(19-carboxynonadecanoylamino)ethoxy]ethoxy]acetyl]-[Arg17,Pro21,Pro27,His34]-h-amylin (peptide)
peptide: K([AEEA-C20 diacid])CNTATCATQRLANFLRHSSPNFGAIPSSTNVGHNTY-NH2
modifications: disulfide 2-7; N-terminus assumed
SMILES: CC[C@H](C)[C@H](NC(=O)[C@H](C)NC(=O)CNC(=O)[C@H](Cc1ccccc1)NC(=O)[C@H](CC(N)=O)NC(=O)[C@@H]1CCCN1C(=O)[C@H](CO)NC(=O)[C@H](CO)NC(=O)[C@H](Cc1c[nH]cn1)NC(=O)[C@H](CCCNC(=N)N)NC(=O)[C@H](CC(C)C)NC(=O)[C@H](Cc1ccccc1)NC(=O)[C@H](CC(N)=O)NC(=O)[C@H](C)NC(=O)[C@H](CC(C)C)NC(=O)[C@H](CCCNC(=N)N)NC(=O)[C@H](CCC(N)=O)NC(=O)[C@@H](NC(=O)[C@H](C)NC(=O)[C@@H]1CSSC[C@H](NC(=O)[C@@H](N)CCCCNC(=O)COCCOCCNC(=O)CCCCCCCCCCCCCCCCCCC(=O)O)C(=O)N[C@@H](CC(N)=O)C(=O)N[C@@H]([C@@H](C)O)C(=O)N[C@@H](C)C(=O)N[C@@H]([C@@H](C)O)C(=O)N1)[C@@H](C)O)C(=O)N1CCC[C@H]1C(=O)N[C@@H](CO)C(=O)N[C@@H](CO)C(=O)N[C@H](C(=O)N[C@@H](CC(N)=O)C(=O)N[C@H](C(=O)NCC(=O)N[C@@H](Cc1c[nH]cn1)C(=O)N[C@@H](CC(N)=O)C(=O)N[C@H](C(=O)N[C@@H](Cc1ccc(O)cc1)C(N)=O)[C@@H](C)O)C(C)C)[C@@H](C)O
notes: Analogue of human amylin; also called compound 91
For B3, the IC50 was found to be 29.4 nM with rat calcitonin receptor [1] and 0.386 nM in assay [3]. For the same molecule, the “Ratio rCT/rAmylin binding” value in the assay with rat calcitonin receptor [2] turned out to be 76.3. For the same molecule, the “Ratio hCT/hAmylin binding” value in assay [4] came to 101.
